In test [1] the target is T1, human calcitonin receptor (human, UniProt P30988 25-474).
T1 construct: whole, on cells; Assayed as cell membranes of BHK tk'ts 13 cells stably transfected with the human calcitonin receptor (Assay VII); also called hCTR; hCT
T1 sequence (looked up): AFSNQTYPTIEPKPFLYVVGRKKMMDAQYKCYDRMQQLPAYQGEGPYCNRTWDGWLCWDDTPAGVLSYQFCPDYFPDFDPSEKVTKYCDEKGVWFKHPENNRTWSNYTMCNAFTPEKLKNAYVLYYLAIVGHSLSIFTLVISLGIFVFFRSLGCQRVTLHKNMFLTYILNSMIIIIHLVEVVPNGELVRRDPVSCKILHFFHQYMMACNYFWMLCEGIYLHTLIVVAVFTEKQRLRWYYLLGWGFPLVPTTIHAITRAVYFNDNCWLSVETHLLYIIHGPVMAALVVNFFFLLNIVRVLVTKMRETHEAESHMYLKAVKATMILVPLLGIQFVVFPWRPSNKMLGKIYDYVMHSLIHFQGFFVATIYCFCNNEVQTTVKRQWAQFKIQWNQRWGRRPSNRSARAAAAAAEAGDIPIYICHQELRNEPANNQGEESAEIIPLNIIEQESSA
In words: IC50 at hCTR divided by IC50 at hAmylin-R (SPA competition assays V and VII). A digest of the protocol: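 IC₅₀ values were derived by one-site competition analysis of SPA counts. Cell membranes (35 ng/μL) with SPA beads were incubated with test compounds for 120 min at 25° C in Hepes buffer, pH 7.4, containing CaCl2, MgCl₂, OA and Tween20.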

Test [2] addresses T1, human calcitonin receptor. In words: SPA competition vs 125I-calcitonin, membranes of BHK cells with human calcitonin receptor (Assay VII). A digest of the protocol: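 BHK hCTR membranes 35 ng/μL + SPA beads 0.05 mg/well; buffer 50 mM Hepes pH 7.4, 1 mM CaCl2, 5 mM MgCl₂, 0.1% OA, 0.02% Tween20. 120 min, 25° C., shaking. Scintillation count; IC50 by one-site binding competition.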

Numbered stars: 1 amine (or outer) side, 2 acyl side, 3 side chain; on linkers, the order of the positions; unused ones are H or OH. Bridge positions count the residues as written; N and C are the ends. Side chains are listed from the residue outwards. Ends that are not written are not given here. * marks the point of attachment. C20 diacid = O=C(O)CCCCCCCCCCCCCCCCCCC(=O)*; γGlu = O=C(O)[C@H](CCC(=O)[*:2])N[*:1]

This is an account of results in patent publication US20140087995A1 (published 2014).

B1: N^ε1-[(4S)-4-carboxy-4-(19-carboxynonadecanoylamino)butanoyl]-[His14,Arg17,Pro21,Pro27,His35]-h-amylin (peptide)
peptide: K([γGlu-C20 diacid])CNTATCATQRLAHFLRHSSPNFGAIPSSTNVGSHTY-NH2
modifications: disulfide 2-7; N-terminus assumed
SMILES: CC[C@H](C)[C@H](NC(=O)[C@H](C)NC(=O)CNC(=O)[C@H](Cc1ccccc1)NC(=O)[C@H](CC(N)=O)NC(=O)[C@@H]1CCCN1C(=O)[C@H](CO)NC(=O)[C@H](CO)NC(=O)[C@H](Cc1c[nH]cn1)NC(=O)[C@H](CCCNC(=N)N)NC(=O)[C@H](CC(C)C)NC(=O)[C@H](Cc1ccccc1)NC(=O)[C@H](Cc1c[nH]cn1)NC(=O)[C@H](C)NC(=O)[C@H](CC(C)C)NC(=O)[C@H](CCCNC(=N)N)NC(=O)[C@H](CCC(N)=O)NC(=O)[C@@H](NC(=O)[C@H](C)NC(=O)[C@@H]1CSSC[C@H](NC(=O)[C@@H](N)CCCCNC(=O)CC[C@H](NC(=O)CCCCCCCCCCCCCCCCCCC(=O)O)C(=O)O)C(=O)N[C@@H](CC(N)=O)C(=O)N[C@@H]([C@@H](C)O)C(=O)N[C@@H](C)C(=O)N[C@@H]([C@@H](C)O)C(=O)N1)[C@@H](C)O)C(=O)N1CCC[C@H]1C(=O)N[C@@H](CO)C(=O)N[C@@H](CO)C(=O)N[C@H](C(=O)N[C@@H](CC(N)=O)C(=O)N[C@H](C(=O)NCC(=O)N[C@@H](CO)C(=O)N[C@@H](Cc1c[nH]cn1)C(=O)N[C@H](C(=O)N[C@@H](Cc1ccc(O)cc1)C(N)=O)[C@@H](C)O)C(C)C)[C@@H](C)O
notes: also called compound 66
By IC50 is commonly meant the point on the concentration scale where inhibition reaches its midpoint. With B1, the “Ratio hCT/hAmylin binding” value in test [1] turned out to be 45.5. For the same molecule, in test [2], the IC50 was 18 nM.

B2: N^ε1-[(4S)-4-carboxy-4-[[(4S)-4-carboxy-4-(19-carboxynonadecanoylamino)butanoyl]amino]butanoyl]-[Glu14,Arg17,Pro21,Pro27,Arg35]-h-amylin (peptide)
peptide: K([γGlu-γGlu-C20 diacid])CNTATCATQRLAEFLRHSSPNFGAIPSSTNVGSRTY-NH2
modifications: disulfide 2-7; N-terminus assumed
SMILES: CC[C@H](C)[C@H](NC(=O)[C@H](C)NC(=O)CNC(=O)[C@H](Cc1ccccc1)NC(=O)[C@H](CC(N)=O)NC(=O)[C@@H]1CCCN1C(=O)[C@H](CO)NC(=O)[C@H](CO)NC(=O)[C@H](Cc1c[nH]cn1)NC(=O)[C@H](CCCNC(=N)N)NC(=O)[C@H](CC(C)C)NC(=O)[C@H](Cc1ccccc1)NC(=O)[C@H](CCC(=O)O)NC(=O)[C@H](C)NC(=O)[C@H](CC(C)C)NC(=O)[C@H](CCCNC(=N)N)NC(=O)[C@H](CCC(N)=O)NC(=O)[C@@H](NC(=O)[C@H](C)NC(=O)[C@@H]1CSSC[C@H](NC(=O)[C@@H](N)CCCCNC(=O)CC[C@H](NC(=O)CC[C@H](NC(=O)CCCCCCCCCCCCCCCCCCC(=O)O)C(=O)O)C(=O)O)C(=O)N[C@@H](CC(N)=O)C(=O)N[C@@H]([C@@H](C)O)C(=O)N[C@@H](C)C(=O)N[C@@H]([C@@H](C)O)C(=O)N1)[C@@H](C)O)C(=O)N1CCC[C@H]1C(=O)N[C@@H](CO)C(=O)N[C@@H](CO)C(=O)N[C@H](C(=O)N[C@@H](CC(N)=O)C(=O)N[C@H](C(=O)NCC(=O)N[C@@H](CO)C(=O)N[C@@H](CCCNC(=N)N)C(=O)N[C@H](C(=O)N[C@@H](Cc1ccc(O)cc1)C(N)=O)[C@@H](C)O)C(C)C)[C@@H](C)O
notes: also called compound 89
With B2, the “Ratio hCT/hAmylin binding” value in test [1] amounted to 28. In addition, the IC50 in test [2] was 32.5 nM.

B3: N^ε1-[(4S)-4-carboxy-4-[[(4S)-4-carboxy-4-(19-carboxynonadecanoylamino)butanoyl]amino]butanoyl]-[Arg17,Pro21,Pro27,His34]-h-amylin (peptide)
peptide: K([γGlu-γGlu-C20 diacid])CNTATCATQRLANFLRHSSPNFGAIPSSTNVGHNTY-NH2
modifications: disulfide 2-7; N-terminus assumed
SMILES: CC[C@H](C)[C@H](NC(=O)[C@H](C)NC(=O)CNC(=O)[C@H](Cc1ccccc1)NC(=O)[C@H](CC(N)=O)NC(=O)[C@@H]1CCCN1C(=O)[C@H](CO)NC(=O)[C@H](CO)NC(=O)[C@H](Cc1c[nH]cn1)NC(=O)[C@H](CCCNC(=N)N)NC(=O)[C@H](CC(C)C)NC(=O)[C@H](Cc1ccccc1)NC(=O)[C@H](CC(N)=O)NC(=O)[C@H](C)NC(=O)[C@H](CC(C)C)NC(=O)[C@H](CCCNC(=N)N)NC(=O)[C@H](CCC(N)=O)NC(=O)[C@@H](NC(=O)[C@H](C)NC(=O)[C@@H]1CSSC[C@H](NC(=O)[C@@H](N)CCCCNC(=O)CC[C@H](NC(=O)CC[C@H](NC(=O)CCCCCCCCCCCCCCCCCCC(=O)O)C(=O)O)C(=O)O)C(=O)N[C@@H](CC(N)=O)C(=O)N[C@@H]([C@@H](C)O)C(=O)N[C@@H](C)C(=O)N[C@@H]([C@@H](C)O)C(=O)N1)[C@@H](C)O)C(=O)N1CCC[C@H]1C(=O)N[C@@H](CO)C(=O)N[C@@H](CO)C(=O)N[C@H](C(=O)N[C@@H](CC(N)=O)C(=O)N[C@H](C(=O)NCC(=O)N[C@@H](Cc1c[nH]cn1)C(=O)N[C@@H](CC(N)=O)C(=O)N[C@H](C(=O)N[C@@H](Cc1ccc(O)cc1)C(N)=O)[C@@H](C)O)C(C)C)[C@@H](C)O
notes: also called compound 86
B3: in test [1], the “Ratio hCT/hAmylin binding” value was 159. In addition, in test [2], the IC50 came out at 133 nM.

B4: N^ε1-[(4S)-4-carboxy-4-[[(4S)-4-carboxy-4-(19-carboxynonadecanoylamino)butanoyl]amino]butanoyl]-[Glu14,Arg17,Pro21,Pro27,His34]-h-amylin (peptide)
peptide: K([γGlu-γGlu-C20 diacid])CNTATCATQRLAEFLRHSSPNFGAIPSSTNVGHNTY-NH2
modifications: disulfide 2-7; N-terminus assumed
SMILES: CC[C@H](C)[C@H](NC(=O)[C@H](C)NC(=O)CNC(=O)[C@H](Cc1ccccc1)NC(=O)[C@H](CC(N)=O)NC(=O)[C@@H]1CCCN1C(=O)[C@H](CO)NC(=O)[C@H](CO)NC(=O)[C@H](Cc1c[nH]cn1)NC(=O)[C@H](CCCNC(=N)N)NC(=O)[C@H](CC(C)C)NC(=O)[C@H](Cc1ccccc1)NC(=O)[C@H](CCC(=O)O)NC(=O)[C@H](C)NC(=O)[C@H](CC(C)C)NC(=O)[C@H](CCCNC(=N)N)NC(=O)[C@H](CCC(N)=O)NC(=O)[C@@H](NC(=O)[C@H](C)NC(=O)[C@@H]1CSSC[C@H](NC(=O)[C@@H](N)CCCCNC(=O)CC[C@H](NC(=O)CC[C@H](NC(=O)CCCCCCCCCCCCCCCCCCC(=O)O)C(=O)O)C(=O)O)C(=O)N[C@@H](CC(N)=O)C(=O)N[C@@H]([C@@H](C)O)C(=O)N[C@@H](C)C(=O)N[C@@H]([C@@H](C)O)C(=O)N1)[C@@H](C)O)C(=O)N1CCC[C@H]1C(=O)N[C@@H](CO)C(=O)N[C@@H](CO)C(=O)N[C@H](C(=O)N[C@@H](CC(N)=O)C(=O)N[C@H](C(=O)NCC(=O)N[C@@H](Cc1c[nH]cn1)C(=O)N[C@@H](CC(N)=O)C(=O)N[C@H](C(=O)N[C@@H](Cc1ccc(O)cc1)C(N)=O)[C@@H](C)O)C(C)C)[C@@H](C)O
notes: also called compound 87
Turning to B4, the “Ratio hCT/hAmylin binding” value in test [1] is 35.6. Also, the concentration for half-maximal inhibition (IC50) in test [2] was 22.5 nM.

B5: N^ε1-[(4S)-4-carboxy-4-[[(4S)-4-carboxy-4-(19-carboxynonadecanoylamino)butanoyl]amino]butanoyl]-[Glu14,Arg17,Pro21,Pro27,Arg34]-h-amylin (peptide)
peptide: K([γGlu-γGlu-C20 diacid])CNTATCATQRLAEFLRHSSPNFGAIPSSTNVGRNTY-NH2
modifications: disulfide 2-7; N-terminus assumed
SMILES: CC[C@H](C)[C@H](NC(=O)[C@H](C)NC(=O)CNC(=O)[C@H](Cc1ccccc1)NC(=O)[C@H](CC(N)=O)NC(=O)[C@@H]1CCCN1C(=O)[C@H](CO)NC(=O)[C@H](CO)NC(=O)[C@H](Cc1c[nH]cn1)NC(=O)[C@H](CCCNC(=N)N)NC(=O)[C@H](CC(C)C)NC(=O)[C@H](Cc1ccccc1)NC(=O)[C@H](CCC(=O)O)NC(=O)[C@H](C)NC(=O)[C@H](CC(C)C)NC(=O)[C@H](CCCNC(=N)N)NC(=O)[C@H](CCC(N)=O)NC(=O)[C@@H](NC(=O)[C@H](C)NC(=O)[C@@H]1CSSC[C@H](NC(=O)[C@@H](N)CCCCNC(=O)CC[C@H](NC(=O)CC[C@H](NC(=O)CCCCCCCCCCCCCCCCCCC(=O)O)C(=O)O)C(=O)O)C(=O)N[C@@H](CC(N)=O)C(=O)N[C@@H]([C@@H](C)O)C(=O)N[C@@H](C)C(=O)N[C@@H]([C@@H](C)O)C(=O)N1)[C@@H](C)O)C(=O)N1CCC[C@H]1C(=O)N[C@@H](CO)C(=O)N[C@@H](CO)C(=O)N[C@H](C(=O)N[C@@H](CC(N)=O)C(=O)N[C@H](C(=O)NCC(=O)N[C@@H](CCCNC(=N)N)C(=O)N[C@@H](CC(N)=O)C(=O)N[C@H](C(=O)N[C@@H](Cc1ccc(O)cc1)C(N)=O)[C@@H](C)O)C(C)C)[C@@H](C)O
notes: also called compound 88
As to B5, the “Ratio hCT/hAmylin binding” value in test [1] is 46.5. The IC50 in test [2] was found to be 34.9 nM.

B6: N^ε1-[(4S)-4-carboxy-4-(19-carboxynonadecanoylamino)butanoyl]-[His14,Arg17,Pro21,Pro27,Pro31]-h-amylin (peptide)
peptide: K([γGlu-C20 diacid])CNTATCATQRLAHFLRHSSPNFGAIPSSTPVGSNTY-NH2
modifications: disulfide 2-7; N-terminus assumed
SMILES: CC[C@H](C)[C@H](NC(=O)[C@H](C)NC(=O)CNC(=O)[C@H](Cc1ccccc1)NC(=O)[C@H](CC(N)=O)NC(=O)[C@@H]1CCCN1C(=O)[C@H](CO)NC(=O)[C@H](CO)NC(=O)[C@H](Cc1c[nH]cn1)NC(=O)[C@H](CCCNC(=N)N)NC(=O)[C@H](CC(C)C)NC(=O)[C@H](Cc1ccccc1)NC(=O)[C@H](Cc1c[nH]cn1)NC(=O)[C@H](C)NC(=O)[C@H](CC(C)C)NC(=O)[C@H](CCCNC(=N)N)NC(=O)[C@H](CCC(N)=O)NC(=O)[C@@H](NC(=O)[C@H](C)NC(=O)[C@@H]1CSSC[C@H](NC(=O)[C@@H](N)CCCCNC(=O)CC[C@H](NC(=O)CCCCCCCCCCCCCCCCCCC(=O)O)C(=O)O)C(=O)N[C@@H](CC(N)=O)C(=O)N[C@@H]([C@@H](C)O)C(=O)N[C@@H](C)C(=O)N[C@@H]([C@@H](C)O)C(=O)N1)[C@@H](C)O)C(=O)N1CCC[C@H]1C(=O)N[C@@H](CO)C(=O)N[C@@H](CO)C(=O)N[C@H](C(=O)N1CCC[C@H]1C(=O)N[C@H](C(=O)NCC(=O)N[C@@H](CO)C(=O)N[C@@H](CC(N)=O)C(=O)N[C@H](C(=O)N[C@@H](Cc1ccc(O)cc1)C(N)=O)[C@@H](C)O)C(C)C)[C@@H](C)O
notes: also called compound 62
Consider B6, for which the “Ratio hCT/hAmylin binding” value in test [1] amounted to 63. Further, the IC50 in test [2] amounted to 6.17 nM.
